Assay [1] deals with T1, P9A-bA.
T1 chain: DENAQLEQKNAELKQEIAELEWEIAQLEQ
Briefly: two-hybrid library CCNG1.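 Also: natural log of median RNA to DNA barcode read ratio; higher means stronger binding.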

The target of assay [2] is T2, P4A-bA.
T2 chain: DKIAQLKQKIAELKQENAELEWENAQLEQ
Briefly: two-hybrid library CCNG1.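 Also: natural log of median RNA to DNA barcode read ratio; higher means stronger binding.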

Assay [3] addresses T3, P5A-bA.
T3 chain: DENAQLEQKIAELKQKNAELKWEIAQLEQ
Briefly: two-hybrid library CCNG1.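 Also: natural log of median RNA to DNA barcode read ratio; higher means stronger binding.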

The target of assay [4] is T4, P6A-bA.
T4 chain: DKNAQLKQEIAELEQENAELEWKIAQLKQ
Briefly: two-hybrid library CCNG1.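 Also: natural log of median RNA to DNA barcode read ratio; higher means stronger binding.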

Assay [5] addresses T5, P3A-bA.
T5 chain: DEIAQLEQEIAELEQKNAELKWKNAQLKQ
Briefly: two-hybrid library CCNG1.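 Also: natural log of median RNA to DNA barcode read ratio; higher means stronger binding.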

Assay [6] addresses T6, P7A-bA.
T6 chain: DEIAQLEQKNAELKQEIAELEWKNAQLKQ
Briefly: two-hybrid library CCNG1.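 Also: natural log of median RNA to DNA barcode read ratio; higher means stronger binding.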

In assay [7] the target is T7, P8A-bA.
T7 chain: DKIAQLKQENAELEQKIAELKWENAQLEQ
Briefly: two-hybrid library CCNG1.

For assay [8], the target named is T8, 4H3926-bA.
T8 chain: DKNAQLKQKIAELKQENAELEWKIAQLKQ
Briefly: two-hybrid library CCNG1.

The target of assay [9] is T9, 4H906-bA.
T9 chain: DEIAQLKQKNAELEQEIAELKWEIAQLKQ
Briefly: two-hybrid library CCNG1.

For assay [10], the target named is T10, 4H3462-bA.
T10 chain: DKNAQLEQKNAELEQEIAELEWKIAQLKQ
Briefly: two-hybrid library CCNG1.

Assay [11] deals with T11, 4H1544-bA.
T11 chain: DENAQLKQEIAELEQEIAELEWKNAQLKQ
Briefly: two-hybrid library CCNG1.

The target of assay [12] is T12, 4H3277-bA.
T12 chain: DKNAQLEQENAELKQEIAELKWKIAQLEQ
Briefly: two-hybrid library CCNG1.

For assay [13], the target named is T13, 4H626-bA.
T13 chain: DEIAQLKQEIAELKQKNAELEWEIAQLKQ
Briefly: two-hybrid library CCNG1.

Assay [14] deals with T14, 4H1710-bA.
T14 chain: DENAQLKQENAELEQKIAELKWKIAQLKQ
Briefly: two-hybrid library CCNG1.

In assay [15] the target is T15, 4H3974-bA.
T15 chain: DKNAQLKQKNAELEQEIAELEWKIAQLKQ
Briefly: two-hybrid library CCNG1.

Assay [16] deals with T16, 4H1985-bA.
T16 chain: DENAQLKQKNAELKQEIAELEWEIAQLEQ
Briefly: two-hybrid library CCNG1.

Assay [17] has as its target T17, 4H3817-bA.
T17 chain: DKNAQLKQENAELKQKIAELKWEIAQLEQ
Briefly: two-hybrid library CCNG1.

Assay [18] deals with T18, 4H1899-bA.
T18 chain: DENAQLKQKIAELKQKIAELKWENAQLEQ
Briefly: two-hybrid library CCNG1.

For assay [19], the target named is T19, 4H570-bA.
T19 chain: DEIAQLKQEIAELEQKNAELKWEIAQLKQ
Briefly: two-hybrid library CCNG1.

The target of assay [20] is T20, 4H3162-bA.
T20 chain: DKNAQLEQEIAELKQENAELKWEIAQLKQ
Briefly: two-hybrid library CCNG1.

In assay [21] the target is T21, 4H591-bA.
T21 chain: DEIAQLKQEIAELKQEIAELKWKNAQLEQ
Briefly: two-hybrid library CCNG1.

Assay [22] addresses T22, 4H3613-bA.
T22 chain: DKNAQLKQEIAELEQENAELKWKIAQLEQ
Briefly: two-hybrid library CCNG1.

The target in assay [23] is T23, 4H3628-bA.
T23 chain: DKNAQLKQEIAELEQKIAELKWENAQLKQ
Briefly: two-hybrid library CCNG1.

Assay [24] addresses T24, 4H850-bA.
T24 chain: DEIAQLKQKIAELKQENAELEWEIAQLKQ
Briefly: two-hybrid library CCNG1.

Assay [25] has as its target T25, 4H3497-bA.
T25 chain: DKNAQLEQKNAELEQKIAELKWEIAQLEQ
Briefly: two-hybrid library CCNG1.

In assay [26] the target is T26, 4H3858-bA.
T26 chain: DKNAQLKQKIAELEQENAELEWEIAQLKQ
Briefly: two-hybrid library CCNG1.

For assay [27], the target named is T27, 4H3175-bA.
T27 chain: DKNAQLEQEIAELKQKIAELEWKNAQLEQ
Briefly: two-hybrid library CCNG1.

The target in assay [28] is T28, 4H3298-bA.
T28 chain: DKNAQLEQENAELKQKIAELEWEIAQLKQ
Briefly: two-hybrid library CCNG1.

Assay [29] addresses T29, 4H3340-AA.
T29 chain: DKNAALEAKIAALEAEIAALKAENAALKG
Briefly: two-hybrid library CCmax.

The target of assay [30] is T30, 4H688-AA.
T30 chain: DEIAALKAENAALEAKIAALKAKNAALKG
Briefly: two-hybrid library CCmax. Particulars: mean of both orientations.

Assay [31] addresses T31, 4H3493-AA.
T31 chain: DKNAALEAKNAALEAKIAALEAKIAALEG
Briefly: two-hybrid library CCmax. Particulars: mean of both orientations.

Assay [32] concerns the target T32, 4H2774-AA.
T32 chain: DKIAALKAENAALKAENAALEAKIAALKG
Briefly: two-hybrid library CCmax. Conditions: mean of both orientations.

In assay [33] the target is T33, 4H3001-AA.
T33 chain: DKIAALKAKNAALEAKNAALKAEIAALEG
Briefly: two-hybrid library CCmax. Conditions: mean of both orientations.

Assay [34] addresses T34, 4H347-AA.
T34 chain: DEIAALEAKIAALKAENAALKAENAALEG
Briefly: two-hybrid library CCmax. Conditions: mean of both orientations.

Assay [35] addresses T35, 4H963-AA.
T35 chain: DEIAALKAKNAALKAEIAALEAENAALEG
Briefly: two-hybrid library CCmax. Particulars: mean of both orientations.

Assay [36] concerns the target T36, 4H406-AA.
T36 chain: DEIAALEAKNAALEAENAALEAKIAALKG
Briefly: two-hybrid library CCmax. Conditions: mean of both orientations.

The target in assay [37] is T37, 4H2504-AA.
T37 chain: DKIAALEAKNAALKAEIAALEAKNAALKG
Briefly: two-hybrid library CCmax.

Assay [38] concerns the target T38, 4H376-AA.
T38 chain: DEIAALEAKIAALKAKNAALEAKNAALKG
Briefly: two-hybrid library CCmax. Particulars: mean of both orientations.

Assay [39] has as its target T39, 4H2592-AA.
T39 chain: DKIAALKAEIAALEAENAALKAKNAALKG
Briefly: two-hybrid library CCmax.

Assay [40] deals with T40, 4H2611-AA.
T40 chain: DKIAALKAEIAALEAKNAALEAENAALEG
Briefly: two-hybrid library CCmax. Particulars: mean of both orientations.

The target of assay [41] is T41, 4H3381-AA.
T41 chain: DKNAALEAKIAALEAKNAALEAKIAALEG
Briefly: two-hybrid library CCmax. Conditions: mean of both orientations.

The target of assay [42] is T42, 4H754-bA.
T42 chain: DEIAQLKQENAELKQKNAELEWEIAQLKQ
Briefly: two-hybrid library CCNG1.

Assay [43] addresses T43, 4H4001-bA.
T43 chain: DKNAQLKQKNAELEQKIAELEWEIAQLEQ
Briefly: two-hybrid library CCNG1.

Assay [44] deals with T44, 4H72-bA.
T44 chain: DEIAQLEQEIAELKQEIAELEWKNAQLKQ
Briefly: two-hybrid library CCNG1.

The target in assay [45] is T45, 4H908-bA.
T45 chain: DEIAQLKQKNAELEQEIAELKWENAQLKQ
Briefly: two-hybrid library CCNG1.

Assay [46] addresses T46, 4H717-bA.
T46 chain: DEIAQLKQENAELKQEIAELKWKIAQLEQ
Briefly: two-hybrid library CCNG1.

Assay [47] concerns the target T47, 4H454-bA.
T47 chain: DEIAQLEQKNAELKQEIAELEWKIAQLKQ
Briefly: two-hybrid library CCNG1.

In assay [48] the target is T48, 4H883-bA.
T48 chain: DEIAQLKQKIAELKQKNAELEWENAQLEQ
Briefly: two-hybrid library CCNG1.

The target in assay [49] is T49, 4H3843-bA.
T49 chain: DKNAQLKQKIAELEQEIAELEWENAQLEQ
Briefly: two-hybrid library CCNG1.

For assay [50], the target named is T50, 4H918-bA.
T50 chain: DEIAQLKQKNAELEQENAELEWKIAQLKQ
Briefly: two-hybrid library CCNG1.

For assay [51], the target named is T51, 4H967-bA.
T51 chain: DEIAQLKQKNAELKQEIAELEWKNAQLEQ
Briefly: two-hybrid library CCNG1.

Assay [52] concerns the target T52, 4H953-bA.
T52 chain: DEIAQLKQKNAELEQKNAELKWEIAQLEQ
Briefly: two-hybrid library CCNG1.

The target of assay [53] is T53, 4H3782-bA.
T53 chain: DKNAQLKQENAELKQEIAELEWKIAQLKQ
Briefly: two-hybrid library CCNG1.

The target in assay [54] is T54, 4H687-bA.
T54 chain: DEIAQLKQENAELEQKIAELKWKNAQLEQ
Briefly: two-hybrid library CCNG1.

In assay [55] the target is T55, 4H3185-bA.
T55 chain: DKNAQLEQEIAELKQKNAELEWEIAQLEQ
Briefly: two-hybrid library CCNG1.

For assay [56], the target named is T56, 4H568-bA.
T56 chain: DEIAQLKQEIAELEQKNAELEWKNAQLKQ
Briefly: two-hybrid library CCNG1.

In assay [57] the target is T57, 4H3427-bA.
T57 chain: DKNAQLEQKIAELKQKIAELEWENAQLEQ
Briefly: two-hybrid library CCNG1.

Assay [58] concerns the target T58, 4H797-bA.
T58 chain: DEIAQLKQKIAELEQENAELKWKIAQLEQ
Briefly: two-hybrid library CCNG1.

The target in assay [59] is T59, 4H607-bA.
T59 chain: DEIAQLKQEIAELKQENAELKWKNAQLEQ
Briefly: two-hybrid library CCNG1.

In assay [60] the target is T60, 4H3354-bA.
T60 chain: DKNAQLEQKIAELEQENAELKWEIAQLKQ
Briefly: two-hybrid library CCNG1.

Assay [61] addresses T61, 4H338-bA.
T61 chain: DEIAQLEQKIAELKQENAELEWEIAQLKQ
Briefly: two-hybrid library CCNG1.

For assay [62], the target named is T62, 4H3855-bA.
T62 chain: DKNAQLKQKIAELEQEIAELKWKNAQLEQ
Briefly: two-hybrid library CCNG1.

Assay [63] addresses T63, 4H331-bA.
T63 chain: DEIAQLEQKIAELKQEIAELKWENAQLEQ
Briefly: two-hybrid library CCNG1.

For DKIAQLKQKNAELKQKNAELKWKIAQLKQ [P2A-bA], the interaction score in assay [1] is 0.702; in assay [2], 0.0163; in assay [3] it was -0.638; in assay [4], 0.426; in assay [5], -0.686; in [6], -0.916. Moreover, in [7], the interaction score was -0.64.
With DEIAQLEQENAELEQENAELEWEIAQLEQ [P1A-bA], the interaction score in assay [1] is -1.21; in assay [2], -1.08; in assay [3] it was -1.1; in [4], -1.21; in assay [5], -1.12; in assay [6], -0.804. The interaction score in [7] was -0.805.
In the case of DEIAQLEQEIAELEQKNAELKWKNAQLKQ [P3A-bA], the interaction score in assay [1] was 0.237; in assay [2], 2.18; in assay [3], -0.684; in assay [4] it was 1.19; in assay [5] it was -1.07; in [6] it was -1.05. In [7], this molecule had an interaction score of 0.146.
In the case of DENAQLKQEIAELEQEIAELEWKNAQLKQ [4H1544-bA], the interaction score in [8] is 0.0381; in [9], -0.806; in assay [10] it was 0.455; in assay [11], 0.00288; in [12], 0.243; in assay [13], -0.46. For the same molecule, the interaction score in assay [14] is 2.06; in [15], 0.562; in [16], 0.274; in assay [17] it was 0.78; in assay [18], 1.52; in assay [19] it was -0.0902. For the same molecule, the interaction score in assay [20] is 0.788; in assay [21], -0.632; in assay [22], 0.572; in assay [23], 0.77; in assay [24], 0.322; in [25] it was 0.215. Moreover, the figures for the interaction score in assay [26], in [27] and in assay [28] were -0.357, -0.0402 and 0.792, respectively.
DKIAALEAKNAALKAEIAALEAKNAALKG [4H2504-AA]: the interaction score in assay [29] is -1.51; in assay [30], 0.978; in [31], -1.14; in assay [32] it was -1.42; in assay [33], -1.38; in [34] it was -1.77. In addition, the interaction score in [35] was -0.737; in assay [36] it was 0.644; in assay [37] it was -0.729; in [38] it was -1.78; in assay [39], -1.07; in assay [40], -2.59. For the same molecule, in assay [41], the interaction score was -0.947.
In the case of DKNAQLEQEIAELKQKNAELEWEIAQLEQ [4H3185-bA], the interaction score in assay [42] is -0.86; in [43], -0.835; in [44], -1.82; in [45] it was -1.86; in assay [46], -1.46; in assay [47], -1.66. For the same molecule, the interaction score in [48] is -1.49; in assay [49], -0.572; in assay [50], -1.76; in assay [51] it was -0.96; in assay [52] it was -1.76; in [53] it was -1.06. The interaction score in assay [54] was -0.744; in assay [55], -0.903; in [56] it was -1.72; in assay [57] it was -0.483; in assay [58], -1.99; in assay [59], -1.07. Also, the interaction score in assay [60] was -1.03; in assay [61], -1.39; in assay [62] it was -0.974; in assay [5], -0.564; in assay [63], -1.49.

The record behind these values is PMC10397247.
